Target: T1, Pox4 (Candida tropicalis, UniProt P06598)
T1 construct: made in house; host or cells: E. coli Rosetta II BL21, pET26b; crude cell lysate (10 ug per reaction)
Format: biochemical, Candida strain ATCC20336
Settings: native isozyme
Procedure: To express an enzyme, a colony from each transformation of Rosetta cells was used to start a 5 ml overnight culture of LB containing the antibiotics kanamycin (to select for pET26b) and chloramphenicol (to select for a second plasmid found in Rosetta II cells that mediates improved translation of eukaryotic proteins expressed in E. coli) grown at 37° C. The next morning, the overnight culture was used to seed 30 ml of LB containing kanamycin and chloramphenicol to an OD600 reading of 0.1. The 30 ml cultures were grown at 37° C. for 2 hours and then placed on ice for 10 minutes. To induce expression, isopropyl-beta-D-thiogalactopyranoside (IPTG) was added to the culture to a final concentration of 0.1 mM. In some cases induction was performed using Novagen Overnight Express Autoinduction System 1 (CAT#71300-3). The cells were then shaken at 15° C. overnight to express the acyl CoA oxidase.
To test the activity of the acyl CoA oxidase, cells from the overnight induction were pelleted at 1046×g at 4° C. in 50 ml conical tubes. The cell pellets were resuspended in 1 ml of 50 mM KPO4, pH 7.6, 50 μM FAD buffer and then transferred to a 2 ml centrifuge tube. A Misonix Sonicator 3000 (QSonica, Newtown, Conn.) was used to lyse the cells, which were sonicated at a power setting of 2 for 2 pulses of 20 seconds each. […] The spectrophotometer was set to read for 5 minutes at 500 nm, 30° C. […]

B1: Pox4p: native acyl-CoA oxidase isozyme of Candida strain ATCC20336 (protein, UniProt P06598 2-709, looked up)
Acyl-coenzyme A oxidase 4: TFTKKNVSVSQGPDPRSSIQKERDSSKWNPQQMNYFLEGSVERSELMKALAQQMERDPILFTDGSYYDLTKDQQRELTAVKINRIARYREQESIDTFNKRLSLIGIFDPQVGTRIGVNLGLFLSCIRGNGTTSQLNYWANEKETADVKGIYGCFGMTELAHGSNVAGLETTATFDKESDEFVINTPHIGATKWWIGGAAHSATHCSVYARLIVDGQDYGVKTFVVPLRDSNHDLMPGVTVGDIGPKMGRDGIDNGWIQFSNVRIPRFFMLQKFCKVSAEGEVTLPPLEQLSYSALLGGRVMMVLDSYRMLARMSTIALRYAIGRRQFKGDNVDPNDPNALETQLIDYPLHQKRLFPYFVPPMSSPSVPSRLNTPSRPPWSNWTSPLKRTTPRLIFKSIDDMKSLFVDSGSLKSTATWLGAEAIDQCRQACGGHGHSSYNGFGKAYNDWVVQCTWEGDNNVLGMSVGKPIVKQVISIEDAGKTVRGSTAFLNQLKEYTGSNSSKVVLNTVADLDDIKTVIKAIEVAIIRLSQEAASIVKKESFDYVGAELVQLSKLKAHHYLLTEYIRRIDTFDQKELAPYLITLGKLYAATIVLDRFAGVFLTFNVASTEAITALASVQIPKLCAEVRPNVVAYTDSFQQSDMIVNSAIGRYDGDIYENYFDLVKLQNPPSKTKAPYSDALEAMLNRPTLDERERFQKSDETAAILSK
For B1, the substrate specificity was “broad substrate specificity”.

— patent publication US9765346B2, “Biological methods for preparing a fatty dicarboxylic acid” (Verdezyne, Inc., priority 2011, dated 2017)
